# Assay results as given in patent US20250002594A1 (SHANGHAI EPIMAB BIOTHERAPEUTICS, published 2025).
# T1: recombinant human CD132 (human, UniProt P31785 23-262, limits assumed)
# T1 construct: also called IL-2Rγ
# T1 sequence (looked up): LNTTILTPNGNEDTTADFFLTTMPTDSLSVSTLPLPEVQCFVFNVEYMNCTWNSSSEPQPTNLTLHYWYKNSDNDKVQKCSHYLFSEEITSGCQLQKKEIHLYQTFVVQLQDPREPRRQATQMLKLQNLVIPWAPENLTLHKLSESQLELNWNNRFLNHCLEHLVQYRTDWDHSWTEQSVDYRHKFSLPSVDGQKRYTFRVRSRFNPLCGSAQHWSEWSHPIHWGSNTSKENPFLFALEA
# T2: recombinant human CD122 (human, UniProt P14784 27-239, limits assumed)
# T2 construct: also called IL-2Rβ
# T2 sequence (looked up): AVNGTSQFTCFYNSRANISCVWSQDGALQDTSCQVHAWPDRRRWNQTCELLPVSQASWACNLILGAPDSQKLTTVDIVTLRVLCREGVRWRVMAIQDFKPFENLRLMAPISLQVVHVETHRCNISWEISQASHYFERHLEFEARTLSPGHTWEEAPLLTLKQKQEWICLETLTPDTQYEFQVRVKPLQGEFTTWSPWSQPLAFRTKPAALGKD
# T3: CD122/CD132 complex on HEK-Blue IL-2 cells (UniProt P14784 27-551; P31785 23-369, limits assumed)
# T3 sequence (looked up) 1: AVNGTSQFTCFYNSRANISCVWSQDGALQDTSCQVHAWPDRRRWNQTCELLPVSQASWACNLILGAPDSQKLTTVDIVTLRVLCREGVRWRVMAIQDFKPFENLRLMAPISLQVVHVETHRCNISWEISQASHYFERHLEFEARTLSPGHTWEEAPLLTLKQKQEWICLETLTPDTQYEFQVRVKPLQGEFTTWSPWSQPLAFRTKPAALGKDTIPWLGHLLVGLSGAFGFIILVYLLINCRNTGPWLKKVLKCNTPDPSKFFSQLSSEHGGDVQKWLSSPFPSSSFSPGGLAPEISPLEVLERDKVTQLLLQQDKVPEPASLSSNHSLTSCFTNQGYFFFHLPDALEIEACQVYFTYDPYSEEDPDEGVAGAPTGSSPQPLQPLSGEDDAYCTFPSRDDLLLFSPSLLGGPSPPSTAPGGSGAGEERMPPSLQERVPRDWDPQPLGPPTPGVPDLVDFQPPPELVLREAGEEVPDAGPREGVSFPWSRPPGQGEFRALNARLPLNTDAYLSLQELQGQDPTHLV
# T3 sequence (looked up) 2: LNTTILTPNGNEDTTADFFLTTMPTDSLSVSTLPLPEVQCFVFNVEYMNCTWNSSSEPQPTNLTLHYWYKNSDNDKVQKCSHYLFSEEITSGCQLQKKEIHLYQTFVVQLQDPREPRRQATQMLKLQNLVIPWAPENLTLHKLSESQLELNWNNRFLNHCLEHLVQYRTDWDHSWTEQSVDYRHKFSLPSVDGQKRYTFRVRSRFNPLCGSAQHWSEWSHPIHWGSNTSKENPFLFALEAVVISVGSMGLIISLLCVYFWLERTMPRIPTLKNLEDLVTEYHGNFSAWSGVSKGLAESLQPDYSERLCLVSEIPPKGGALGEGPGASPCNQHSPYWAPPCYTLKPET
# Key:
# [1] = target: T1, recombinant human CD132; test: GCI (WAVEsystem)
# Method: (§1) Binding affinity and kinetics constants of humanized CD122/CD132 FIT-Ig were determined using a label-free biosensor on WAVEsystem (Creoptix AG, Switzerland) by grating-coupled interferometry (GCI). Briefly, a PCP WAVEchip (Creoptix AG) was pre-immobilized with goat anti-human IgG Fc antibody to a density of 3830 pg/mm² by amine coupling, and used to capture humanized CD122/CD132 FIT-Ig generated from Example 3.2.1 to a density of ˜90 pg/mm², then exposed to recombinant human/cyno CD122 or CD132 serially diluted (3× dilutions from 200 nM to […] for human CD122, human CD132 and cyno CD132, respectively; and from 1000 nM to 1.37 nM for cyno CD122) in 1X HBS-EP+ buffer (Cytiva, Cat No. BR100669) by injection at 60 μL/min for 250s to assess association, followed by 1200s dissociation. After each round of association and dissociation, WAVEchip surface was regenerated by subject to pH 1.5 Glycine-HCl buffer injection at 60 μL/min for 120s. Sensorgrams were recorded at 25° C., the data were analyzed on WAVEcontrol (Creoptix AG) and double referenced by subtracting the signals from blank injections and the reference channel. A Langmuir 1:1 model was used for data fitting.
# [2] = target: T2, recombinant human CD122; test: GCI (WAVEsystem)
# Method: as §1
# [3] = target: T3, CD122/CD132 complex on HEK-Blue IL-2 …; test: cell-based or functional assay
Binder,binding result [1],binding result [2],EC50 from SEAP reporter gene assay [3] [nM]
"huFIT2019-86b-28 (bispecific antibody, human IgG1, kappa, L234A L235A) chain 1: not shown chain 2: EVQLVQSGAEVKKPGASVKVSCKASGYRFSDYVISWVKQATGQGLEWIGEIYPGDAQTYYNEMFKGRATLTADKSISTAYMELSSLRSEDTAVYFCARGSYTYDNYAMDFWGQGTTVTVSSASTKGPSVFPLAPSSKSTSGGTAALGCLVKDYFPEPVTVSWNSGALTSGVHTFPAVLQSSGLYSLSSVVTVPSSSLGTQTYICNVNHKPSNTKVDKKVEPKSC chain 3: not shown",binds,binds,–
"huFIT2019-86b-32 (bispecific antibody, human IgG1, kappa, L234A L235A, also called huFIT9-86b-32) chain 1: not shown chain 2: EVQLVQSGAEVKKPGASVKVSCKASGYTFTDYVISWVRQATGQGLEWMGEIYPGDGNTYYNEMFKGRVTMTRDTSISTAYMELSSLRSEDTAVYYCARGSYTYDNYAMDFWGQGTTVTVSSASTKGPSVFPLAPSSKSTSGGTAALGCLVKDYFPEPVTVSWNSGALTSGVHTFPAVLQSSGLYSLSSVVTVPSSSLGTQTYICNVNHKPSNTKVDKKVEPKSC chain 3: not shown",binds,–,0.163
"huFIT2019-86b-48 (bispecific antibody, human IgG1, kappa, L234A L235A) chain 1: not shown chain 2: EVQLVQSGAEVKKPGASVKVSCKASGYTFTDYVISWVRQATGQGLEWMGEIYPGDGNTYYNEMFKGRVTMTRDTSISTAYMELSSLRSEDTAVYYCARGSYTYDNYAMDFWGQGTTVTVSSASTKGPSVFPLAPSSKSTSGGTAALGCLVKDYFPEPVTVSWNSGALTSGVHTFPAVLQSSGLYSLSSVVTVPSSSLGTQTYICNVNHKPSNTKVDKKVEPKSC chain 3: not shown",binds,–,0.168
"huFIT2019-86b-30 (bispecific antibody, human IgG1, kappa, L234A L235A) chain 1: not shown chain 2: EVQLVQSGAEVKKPGASVKVSCKASGYTFTDYVISWVRQATGQGLEWMGEIYPGDAQTYYNEMFKGRVTMTRDTSISTAYMELSSLRSEDTAVYYCARGSYTYDNYAMDFWGQGTTVTVSSASTKGPSVFPLAPSSKSTSGGTAALGCLVKDYFPEPVTVSWNSGALTSGVHTFPAVLQSSGLYSLSSVVTVPSSSLGTQTYICNVNHKPSNTKVDKKVEPKSC chain 3: not shown",binds,binds,–
"huFIT2019-86b-34 (bispecific antibody, human IgG1, kappa, L234A L235A) chain 1: not shown chain 2: EVQLVQSGAEVKKPGASVKVSCKASGYTFTDYVISWVRQATGQGLEWMGEIYPGDGNTYYNEMFKGRVTMTRDTSISTAYMELSSLRSEDTAVYYCARGSYTYDNYAMDFWGQGTTVTVSSASTKGPSVFPLAPSSKSTSGGTAALGCLVKDYFPEPVTVSWNSGALTSGVHTFPAVLQSSGLYSLSSVVTVPSSSLGTQTYICNVNHKPSNTKVDKKVEPKSC chain 3: not shown",binds,binds,–
"huFIT2019-86b-49 (bispecific antibody, human IgG1, kappa, L234A L235A) chain 1: not shown chain 2: EVQLVQSGAEVKKPGASVKVSCKASGYTFTDYVISWVRQATGQGLEWMGEIYPGDGNTYYNEMFKGRVTMTRDTSISTAYMELSSLRSEDTAVYYCARGSYTYDNYAMDFWGQGTTVTVSSASTKGPSVFPLAPSSKSTSGGTAALGCLVKDYFPEPVTVSWNSGALTSGVHTFPAVLQSSGLYSLSSVVTVPSSSLGTQTYICNVNHKPSNTKVDKKVEPKSC chain 3: not shown",binds,–,0.216
"huFIT2019-86b-35 (bispecific antibody, human IgG1, kappa, L234A L235A) chain 1: not shown chain 2: EVQLVQSGAEVKKPGASVKVSCKASGYTFTDYVISWVRQATGQGLEWMGEIYPGDGNTYYNEMFKGRVTMTRDTSISTAYMELSSLRSEDTAVYYCARGSYTYDNYAMDFWGQGTTVTVSSASTKGPSVFPLAPSSKSTSGGTAALGCLVKDYFPEPVTVSWNSGALTSGVHTFPAVLQSSGLYSLSSVVTVPSSSLGTQTYICNVNHKPSNTKVDKKVEPKSC chain 3: not shown",binds,–,0.163
"huFIT2019-86b-47 (bispecific antibody, human IgG1, kappa, L234A L235A) chain 1: not shown chain 2: EVQLVQSGAEVKKPGASVKVSCKASGYTFTDYVISWVRQATGQGLEWMGEIYPGEGNTYYNEMFKGRVTMTRDTSISTAYMELSSLRSEDTAVYYCARGSYTYDNYAMDFWGQGTTVTVSSASTKGPSVFPLAPSSKSTSGGTAALGCLVKDYFPEPVTVSWNSGALTSGVHTFPAVLQSSGLYSLSSVVTVPSSSLGTQTYICNVNHKPSNTKVDKKVEPKSC chain 3: not shown",binds,–,0.121
"huFIT2019-86b-46 (bispecific antibody, human IgG1, kappa, L234A L235A) chain 1: not shown chain 2: EVQLVQSGAEVKKPGASVKVSCKASGYTFTDYVISWVRQATGQGLEWMGEIYPGDANTYYNEMFKGRVTMTRDTSISTAYMELSSLRSEDTAVYYCARGSYTYDNYAMDFWGQGTTVTVSSASTKGPSVFPLAPSSKSTSGGTAALGCLVKDYFPEPVTVSWNSGALTSGVHTFPAVLQSSGLYSLSSVVTVPSSSLGTQTYICNVNHKPSNTKVDKKVEPKSC chain 3: not shown",binds,–,0.119
"huFIT2019-86b-31 (bispecific antibody, human IgG1, kappa, L234A L235A) chain 1: not shown chain 2: EVQLVQSGAEVKKPGASVKVSCKASGYTFTDYVISWVRQATGQGLEWMGEIYPGDAQTYYNEMFKGRVTMTRDTSISTAYMELSSLRSEDTAVYYCARGSYTYDNYAMDFWGQGTTVTVSSASTKGPSVFPLAPSSKSTSGGTAALGCLVKDYFPEPVTVSWNSGALTSGVHTFPAVLQSSGLYSLSSVVTVPSSSLGTQTYICNVNHKPSNTKVDKKVEPKSC chain 3: not shown",binds,binds,–
"huFIT2019-86b-33 (bispecific antibody, human IgG1, kappa, L234A L235A) chain 1: not shown chain 2: EVQLVQSGAEVKKPGASVKVSCKASGYTFTDYVISWVRQATGQGLEWMGEIYPGDGNTYYNEMFKGRVTMTRDTSISTAYMELSSLRSEDTAVYYCARGSYTYDNYAMDFWGQGTTVTVSSASTKGPSVFPLAPSSKSTSGGTAALGCLVKDYFPEPVTVSWNSGALTSGVHTFPAVLQSSGLYSLSSVVTVPSSSLGTQTYICNVNHKPSNTKVDKKVEPKSC chain 3: not shown",binds,binds,–
"huFIT2019-86b-36 (bispecific antibody, human IgG1, kappa, L234A L235A) chain 1: not shown chain 2: EVQLVQSGAEVKKPGASVKVSCKASGYTFTDYVISWVRQATGQGLEWMGEIYPGDGNTYYNEMFKGRVTMTRDTSISTAYMELSSLRSEDTAVYYCARGSYTYDNYAMDFWGQGTTVTVSSASTKGPSVFPLAPSSKSTSGGTAALGCLVKDYFPEPVTVSWNSGALTSGVHTFPAVLQSSGLYSLSSVVTVPSSSLGTQTYICNVNHKPSNTKVDKKVEPKSC chain 3: not shown",binds,binds,–
"huFIT2019-86b-45 (bispecific antibody, human IgG1, kappa, L234A L235A) chain 1: not shown chain 2: EVQLVQSGAEVKKPGASVKVSCKASGYTFTDYVISWVRQATGQGLEWMGEIYPGDAQTYYNEMFKGRVTMTRDTSISTAYMELSSLRSEDTAVYYCARGSYTYDNYAMDFWGQGTTVTVSSASTKGPSVFPLAPSSKSTSGGTAALGCLVKDYFPEPVTVSWNSGALTSGVHTFPAVLQSSGLYSLSSVVTVPSSSLGTQTYICNVNHKPSNTKVDKKVEPKSC chain 3: not shown",binds,–,0.106
"huFIT2019-86b-29 (bispecific antibody, human IgG1, kappa, L234A L235A) chain 1: not shown chain 2: EVQLVQSGAEVKKPGASVKVSCKASGYTFTDYVISWVRQATGQGLEWMGEIYPGDAQTYYNEMFKGRVTMTRDTSISTAYMELSSLRSEDTAVYYCARGSYTYDNYAMDFWGQGTTVTVSSASTKGPSVFPLAPSSKSTSGGTAALGCLVKDYFPEPVTVSWNSGALTSGVHTFPAVLQSSGLYSLSSVVTVPSSSLGTQTYICNVNHKPSNTKVDKKVEPKSC chain 3: not shown",binds,binds,–
